Results reported in patent publication US20240182563A1 (GENOME, published 2024).

Target: T1, Human CNTN-4 protein (human, UniProt Q8IWV2 19-1000, limits assumed)
T1 construct: soluble antigen run over the captured antibody; also called human CNTN4 (SPR analyte)
T1 sequence (looked up): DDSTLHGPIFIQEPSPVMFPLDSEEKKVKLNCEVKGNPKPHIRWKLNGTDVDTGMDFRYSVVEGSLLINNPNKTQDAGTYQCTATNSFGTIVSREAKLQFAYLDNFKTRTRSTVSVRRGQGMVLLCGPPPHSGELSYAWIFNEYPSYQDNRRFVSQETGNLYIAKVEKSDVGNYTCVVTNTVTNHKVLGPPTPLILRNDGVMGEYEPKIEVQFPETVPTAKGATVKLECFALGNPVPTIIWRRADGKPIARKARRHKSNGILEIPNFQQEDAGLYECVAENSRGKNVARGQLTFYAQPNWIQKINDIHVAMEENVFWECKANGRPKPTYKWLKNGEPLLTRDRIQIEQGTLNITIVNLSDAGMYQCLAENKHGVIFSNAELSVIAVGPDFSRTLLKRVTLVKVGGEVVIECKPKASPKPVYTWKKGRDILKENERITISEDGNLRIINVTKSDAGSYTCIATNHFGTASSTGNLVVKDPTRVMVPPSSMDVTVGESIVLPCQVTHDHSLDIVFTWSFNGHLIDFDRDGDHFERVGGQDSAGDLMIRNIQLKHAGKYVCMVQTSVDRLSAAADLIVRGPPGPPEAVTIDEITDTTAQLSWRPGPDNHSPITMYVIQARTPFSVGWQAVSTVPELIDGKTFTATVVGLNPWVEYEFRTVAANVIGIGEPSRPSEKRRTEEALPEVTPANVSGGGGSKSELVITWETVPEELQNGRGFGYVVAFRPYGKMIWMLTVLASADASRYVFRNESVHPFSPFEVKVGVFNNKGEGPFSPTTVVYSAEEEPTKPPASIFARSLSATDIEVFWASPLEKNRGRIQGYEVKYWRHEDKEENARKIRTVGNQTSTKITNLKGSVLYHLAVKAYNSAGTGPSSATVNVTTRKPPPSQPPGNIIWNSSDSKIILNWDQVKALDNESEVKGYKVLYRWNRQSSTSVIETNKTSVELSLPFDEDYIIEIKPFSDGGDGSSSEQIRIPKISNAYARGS
Assay: SPR, antibody captured by anti-human IgG Fc on CM5 chip, CNTN4 as analyte
Protocol: Specifically, in order to bind anti-human IgG Fc (capture antibody) using amine coupling, CM5 chip was mounted, running buffer was allowed to flow, the chip was activated, and then capture antibody was attached thereto. Dextrin to which capture antibody was not attached was deactivated using ethanolamine, and then regeneration was performed using 3M magnesium chloride to clear analyte except capture antibody. The A-01 prepared at a concentration of 0.05 μg/mL was allowed to flow for 30 seconds at a rate of 10 μL/min for binding. Thereafter, human CNTN4 (400 nM to 0.78 nM) prepared by sequential dilution as an antigen was allowed to flow at a rate of 30 μL/min for 3 minutes to be bound, and dissociation was performed for 5 minutes. Then, in order to clear all analytes attached to the capture antibody, a regeneration solution (3M magnesium chloride) was allowed to flow at a rate of 20 μL/min for 30 seconds, and regeneration was performed. For each concentration of antigen, binding of A-01, binding of antigen, dissociation, and regeneration were repeated in order.

B1: anti-CNTN4 129 chimeric IgG4-S228P (antibody, V domains shown)
VH: AVTLDESEGGLQTPGGALSLVCKASGFTFSSFNMFWVRQAPGKGLEYVAEISGGGGSTWYAPAVKGRATISRDNGQSTVRLQLNNLRAEDTGTYYCAKSADTWSYGAATIDAWGHGTEVIVSS
VL: ALTQPSSVSANLGETVKITCSGSSGSYGWYQQKSPGSAPVTLIYDNTNRPSDIPSRFSGSGSGSTGTLTITGVRAEDEAVYYCGGYDGSTDVFGAGTTLTVL
notes: chicken-human chimeric IgG4-S228P made from S129, kappa light chain constant region (Kappa select); also called A-01; LAHA
B1 was tested, and the Kd was 33.6 nM.
